From US20180319855A1, “GENETICALLY MUTATED AEQUORIN-BASED BIOSENSORS WITH EXTRA SENSITIVITY TO CALCIUM AND IMPROVED BIOLUMINESCENCE INTENSITY” (CENTRE NATIONAL DE LA RECHERCHE SCIENTIFIQUE (CNRS), priority 2015, published 2018)
Numbering of substitutions follows the chain as printed. Names may count otherwise. Where two headings read alike, the source gives them in different places.

What was measured:
[1] = Ca2+ sensitivity curves of reconstituted photoproteins (L/Lmax vs free Ca2+); assay type: biochemical; details: for EC50: redquorin series, CitA, GA, read-out: Calcium sensitivity, EC50; for Relative intensity at pCa 6.5 / Relative intensity at pCa 7.2: relative to Redq
In short: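 Purified apoaequorin/redquorin mutants reconstituted overnight at 4 °C with 5 μM CLZ-f or native CLZ, then moved to zero-Ca2+ MOPS/KCl/EGTA buffer, pH 7.2. Luminescence in EGTA-buffered free-Ca2+ solutions, then saturating CaCl2 to obtain Lmax; EC50 from variable-slope sigmoidal fit of L/Lmax.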

[2] = Thermostability: relative bioluminescence activity after 30 min incubation; assay type: physicochemical; details: CLZ-f
In short: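 Purified photoprotein was reconstituted with CLZ-f and read for total counts with saturating calcium (50 mM Tris-HCl, 100 mM CaCl2, pH 7.5). It was then held at 30 to 40 °C for 30 min, re-equilibrated for 15 min and read again. Activity is 2nd/1st counts ×100.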

B1: Redq/Q159T: aporedquorin (tdTomato-aequorin fusion) mutant Q159T (SEQ ID NO:22) (protein)
chain: MVSKGEEVIKEFMRFKVRMEGSMNGHEFEIEGEGEGRPYEGTQTAKLKVTKGGPLPFAWDILSPQFMYGSKAYVKHPADIPDYKKLSFPEGFKWERVMNFEDGGLVTVTQDSSLQDGTLIYKVKMRGTNFPPDGPVMQKKTMGWEASTERLYPRDGVLKGEIHQALKLKDGGHYLVEFKTIYMAKKPVQLPGYYYVDTKLDITSHNEDYTIVEQYERSEGRHHLFLGHGTGSTGSGSSGTASSEDNNMAVIKEFMRFKVRMEGSMNGHEFEIEGEGEGRPYEGTQTAKLKVTKGGPLPFAWDILSPQFMYGSKAYVKHPADIPDYKKLSFPEGFKWERVMNFEDGGLVTVTQDSSLQDGTLIYKVKMRGTNFPPDGPVMQKKTMGWEASTERLYPRDGVLKGEIHQALKLKDGGHYLVEFKTIYMAKKPVQLPGYYYVDTKLDITSHNEDYTIVEQYERSEGRHHLFLSGFDNPRWIGRHKHMFNFLDVNHNGKISLDEMVYKASDIVINNLGATPEQAKRHKDAVEAFFGGAGMKYGVETDWPAYIEGWKKLATDELEKYAKNEPTLIRIWGDALFDIVDKDQNGAITLDEWKAYTKAAGIIQSSEDCEETFRVCDIDESGTLDVDEMTRQHLGFWYTMDPACEKLYGGAVP
modifications: mutant aequorin
- EC50 ([1]; CLZ-f): 296 ± 13 nM
- Relative intensity at pCa 6.5 ([1]; CLZ-f): 11.0
- Relative intensity at pCa 7.2 ([1]; CLZ-f): 2.8
- Relative intensity at pCa 6.5 ([1]; CLZ-f, listed as Redq/QT): 11
- EC50 ([1]; CLZ-native): 478 ± 39 nM
- Relative intensity at pCa 6.5 ([1]; CLZ-native): 13.0
- Relative intensity at pCa 7.2 ([1]; CLZ-native): 7.1
- Relative intensity at pCa 6.5 ([1]; CLZ-native, listed as Redq/QT): 13
- Thermostability, luminescence activity relative to wt-aequorin ([2]; 30° C. for 30 min): 0.90
- Thermostability, luminescence activity relative to wt-aequorin ([2]; 40° C. for 30 min): 0.92

B2: Redq/Q159D: aporedquorin (tdTomato-aequorin fusion) mutant Q159D (SEQ ID NO:21) (protein)
chain: B1 chain with T623D
modifications: mutant aequorin
- EC50 ([1]; CLZ-f): 290 ± 18 nM
- Relative intensity at pCa 6.5 ([1]; CLZ-f): 23.9
- Relative intensity at pCa 7.2 ([1]; CLZ-f): 14.9
- EC50 ([1]; CLZ-native): 680 ± 33 nM
- Relative intensity at pCa 6.5 ([1]; CLZ-native): 9.1
- Relative intensity at pCa 7.2 ([1]; CLZ-native): 13.2
- Thermostability, luminescence activity relative to wt-aequorin ([2]; 30° C. for 30 min): 0.91
- Thermostability, luminescence activity relative to wt-aequorin ([2]; 40° C. for 30 min): 0.95
